For three molecules, Kd results are on record in paper PMC8724787 (2021).

The target of test [1] is ZIKV-H/PF/2013 sE protein (aa 1-404) (Zika virus (strain H/PF/2013)). Nature of the test: BLI.
In test [2] the target is ZIKV strain PF13 envelope (E) protein on virions (Zika virus (strain PF13), UniProt A0A024B7W1). The test can be described thus: ELISA; apparent.
The target in test [3] is DENV3 strain H87 envelope (E) protein on virions (Dengue virus 3 (strain H87)). The test can be described thus: ELISA; apparent.
The target of test [4] is DENV4 strain 1-0093 envelope (E) protein on virions (Dengue virus 4 (strain 1-0093)). Nature of the test: ELISA; apparent.
Test [5] has as its target DENV2 strain 16681 envelope (E) protein on virions (Dengue virus 2 (strain 16681)). The test can be described thus: ELISA; apparent.

Positions count from the first letter of the chain named. In names and notes the source's numbering stands.

B1: K^L66A C10 mAb mutant (IgG1) (antibody, V domains shown)
VH: EVQLVESGAEVKKPGASVKVSCKASGYTFTSYAMHWVRQAPGQRLEWMGWINAGNGNTKYSQKFQDRVTITRDTSASTAYMELSSLRSEDTAIYYCARDKVDDYGDYWFPTLWYFDYWGQGTLVTVSS
VL: QSALTQPASVSGSPGQSITISCTGTSSDVGGFNYVSWFQQHPGKAPKLMLYDVTSRPSGVSSRFSGSASGNTASLTISGLQAEDEADYYCSSHTSRGTWVFGGGTKLTVL
In test [1], B1 showed a Kd of 40.3 nM.

B2: C10 intact bivalent IgG1 (human monoclonal antibody EDE1 C10) (antibody, V domains shown)
VH: B1 VH
VL: B1 VL with A68K
Consider B2, for which the Kd in test [2] was determined as 0.41 nM; in test [3], 2.03 nM; in test [4] it was 1.42 nM; in test [1] it was 16.2 nM.

B3: C10 monovalent antigen binding fragment (Fab) (Fab, V domains shown)
VH: B1 VH
VL: B1 VL with A68K
Take B3: the Kd in test [5] was found to be 38.8 nM; in test [2], 1.16 nM; in test [3], 165 nM; in test [4] it was 29.2 nM.
